Data: patent US20250027068

B1: PRT-495 (protein)
chain: MVTSVWTKGVTPPTDFIKGEDVFHAPYKAGQGWYDITKAFDGGDDLLCGAATAGNMLHWWFDQNKEYIEAYLKKHPEKQKIMFGDQELLDVRKAINTKGSQKNSELFNYFRDKAFPNLSARRLGVMPDLVLDMFINGYYLNVTKTQTTDVNRTYQEKDKRGGIFDAVFTRGDQSKLLTSRHDFKEKGLKEISDLIKQELTEGKALGLSHTYANVRINHVINLWGADFDSDGNLKAIYVTDSDSNASIGMKKYFVGVNSAGKVAISAKEIKEDNIGAQVLGLFTLSTGQDIWNQTNLEHHHHHH
B2: PRT-497 (protein)
chain: MVTSVWTKGVTPPTDFRKIVDGNIAYYHAPYKAGQGWYDITKTFNGKDDLLCGAATAGNMLHWWFDQNKEYIEAYLKKHPEKQKIMFGDQELLDVRKAINTKGSQKNSELFNYFRDKAFPNLSARRLGVMPDLVLDMFINGYYLNVTKTQTTDVNRTYQEKDKRGGIFDAVFTRGDQSKLLTSRHDFKEKGLKEISDLIKQELTEGKALGLSHTYANVRINHVINLWGADFDSDGNLKAIYVTDSDSNASIGMKKYFVGVNSAGKVAISAKEIKEDNIGAQVLGLFTLSTGQDIWNQTNLEHHHHHH
B3: PRT-635 (protein)
chain: MQITSVWTKGVTPLTPDQFTNQGEDVIHAPYTPNQGWYDITKAFDGKDNLLCGAATAGNMLHWWFDQNKTEIEAYLSKHPEKQKIIFNNQELFDLKAAIDTKDSQTNSQLFNYFRDKAFPNLSARQLGVMPDLVLDMFINGYYLNVFKTQSTDVNRPYQDKDKRGGIFDAVFTRGDQTTLLTARHDLKNKGLNDISTIIKQELTEGKALALSHTYANVSISHVINLWGADFNAEGNLEAIYVTDSDANASIGMKKYFVGINAHGHVAISAKKIEGENIGAQVLGLFTLSSGKDIWQKLSLEHHHHHH
B4: PRT-687 (protein)
chain: MQITSVWTKGVTPLTPEQFRYNNEDVIHAPYKPHQGWYDITKTFNGKDNLLCGAATAGNMLHWWFDQNKTEIEAYLKKYPEKQKIIFNNQKLFDLRKAINTKDSQTNSALFNYFRDKAFPNLSARQLGVMPDLVLDMFINGYYLNVFKTQSTDVNRPYQTRDKRGGIFDHVFGRGDQTTLLTARHDLKNKTLNEISQIIKQELSEGKALALSHTYANVSISHVINLWGADFNAEGNLEAIYVTDSDANAKIGMKKYYVGKNAHGKVAISAKKIEGENIGAQVLGLFTLSSGKDIWQKLSLEHHHHHH
B5: PRT-624 (protein)
chain: MQITSVWTKGVTPLTPEQFRYNNEDVIHAPYLAHQGWYDITKAFDGKDNLLCGAATAGNMLHWWFDQNKTEIEAYLSKHPEKQKIIFNNQELFDLKAAIDTKDSQTNSQLFNYFRDKAFPNLSARQLGVMPDLVLDMFINGYYLNVFKTQSTDVNRDYDDKDKRGGIFDDVFGKGDQTTLLTARHDLKNKGLNDISTIIKQELTEGRALALSHTYANVSISHVINLWGADFNAEGNLEAIYVTDSDANASIGMKKYFVGINAHGHVAISAKKIEGENIGAQVLGLFTLSSGKDIWQKLSLEHHHHHH

target: pooled human IgG (human IgG1, 2, 3 and 4)

Which Enzyme Activity Endpoint Assay (purified): Fab′2 does the source give for B1 here?
The Enzyme Activity Endpoint Assay (purified): Fab′2 was 0 ng/µL.

And the Enzyme Activity Endpoint Assay (purified): Fc?
Its Enzyme Activity Endpoint Assay (purified): Fc is 37 ng/µL.

What about the Enzyme Activity Endpoint Assay (purified): IgG of the same protein?
Its Enzyme Activity Endpoint Assay (purified): IgG is 0 ng/µL.

And the Enzyme Activity Endpoint Assay (purified): scIgG?
Its Enzyme Activity Endpoint Assay (purified): scIgG is 0 ng/µL.

B2 was tested. Which Enzyme Activity Endpoint Assay (purified): Fab′2 did it give?
Its Enzyme Activity Endpoint Assay (purified): Fab′2 is 0 ng/µL.

And the Enzyme Activity Endpoint Assay (purified): Fc?
Its Enzyme Activity Endpoint Assay (purified): Fc is 0 ng/µL.

What about the Enzyme Activity Endpoint Assay (purified): IgG of the same protein?
The Enzyme Activity Endpoint Assay (purified): IgG was 0 ng/µL.

And the Enzyme Activity Endpoint Assay (purified): scIgG?
Its Enzyme Activity Endpoint Assay (purified): scIgG is 0 ng/µL.

For B3, which Enzyme Activity Endpoint Assay (purified): Fab′2 is on record?
The Enzyme Activity Endpoint Assay (purified): Fab′2 was 0 ng/µL.

What about the Enzyme Activity Endpoint Assay (purified): Fc of the same protein?
The Enzyme Activity Endpoint Assay (purified): Fc was 0 ng/µL.

What about the Enzyme Activity Endpoint Assay (purified): IgG of the same protein?
The Enzyme Activity Endpoint Assay (purified): IgG was 0 ng/µL.

What about the Enzyme Activity Endpoint Assay (purified): scIgG of the same protein?
The Enzyme Activity Endpoint Assay (purified): scIgG was 0 ng/µL.

With B4 as the protein, how does the Enzyme Activity Endpoint Assay (purified): Fab′2 read?
Its Enzyme Activity Endpoint Assay (purified): Fab′2 is 738 ng/µL.

What about the Enzyme Activity Endpoint Assay (purified): Fc of the same protein?
The Enzyme Activity Endpoint Assay (purified): Fc was 420 ng/µL.

And the Enzyme Activity Endpoint Assay (purified): IgG?
The Enzyme Activity Endpoint Assay (purified): IgG was 0 ng/µL.

What about the Enzyme Activity Endpoint Assay (purified): scIgG of the same protein?
The Enzyme Activity Endpoint Assay (purified): scIgG was 295 ng/µL.

Which Enzyme Activity Endpoint Assay (purified): Fab′2 does the source give for B5 here?
The Enzyme Activity Endpoint Assay (purified): Fab′2 was 89 ng/µL.

And the Enzyme Activity Endpoint Assay (purified): Fc?
The Enzyme Activity Endpoint Assay (purified): Fc was 251 ng/µL.

What about the Enzyme Activity Endpoint Assay (purified): IgG of the same protein?
Its Enzyme Activity Endpoint Assay (purified): IgG is 96 ng/µL.

What about the Enzyme Activity Endpoint Assay (purified): scIgG of the same protein?
Its Enzyme Activity Endpoint Assay (purified): scIgG is 626 ng/µL.
